In publication PMC9876794 (2022):
Positions count from the first letter of the chain named.

B1: C2695 (antibody, V domains shown)
VH: EVQLVESGGGLAQPGRSLRLSCAASGFKFDDYAMHWVRQAPGQGLEWVSGIDWNSGIIGYADSVMGRFTISRDNAKKSLYLQMNSLRAEDTALYYCAKSGGFGEFKWFDPWGQGTLVTVSS
VL: EIVMTQSPVTLSVSPGERATLSCRASQSVSGNLAWYQQKPGQAPRLLIYGASTRATGFPARFSGSGSGTEFTLTISRLQSEDFAVYYCQQYNKWPRTFGQGTKLEIK
B2: D005 (antibody, V domains shown)
VH: QVQLVQSGAEVKKPGASVKVSCKASGYTFTNYYIHWVRQAPGQGLEWMGIINPSAGSTTYAQKFQGRVTMTSDTSTSTVYMELSSLRSEDTAVYYCARAGELIPAARASFQHWGQGTLVTVSS
VL: DIQMTQSPSTLSASVGDRVTITCRASQSISTWLAWYQQKPGKAPKILIYKASSLESGVPSRFSGSGSGTEFTLTLSSLQPDDFATYYCQQYNSYSPTFGQGTKVEIK
B3: D058 (antibody, V domains shown)
VH: QVQLQESGPGLVKPSETLSLTCTVSGYSISSGYYWGWIRQPPGKGLEWIGSIYHSGSTYYNPSLKSRVTISVDTSKNQFSLKLSSVTAADTAVYYCARDFPLTLYGVLISDAFDIWGQGTMVTVSS
VL: SYELTQPPSVSVSPGQTARITCSADALPKQYAYWYQQKPGQAPVLVIYKDSERPSGIPERFSGSSSGTTVTLTISGVQAEDEADYYCQSADSSGKVFGGGTKLTVL
B4: D102 (antibody, V domains shown)
VH: QVQLVESGGGVVQPGGSLRLSCAASGFTFSSYGMHWVRQAPGKGLEWVAFIRYDGSNKYYADSVKGRFTISRDNSKNTLYLQMNSLRAEDTAVYYCAKTLGYYYDSSGYYLDYWGQGTLVTVSS
VL: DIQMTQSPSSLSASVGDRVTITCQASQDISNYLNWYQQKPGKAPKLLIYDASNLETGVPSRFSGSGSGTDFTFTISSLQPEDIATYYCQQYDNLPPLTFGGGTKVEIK
B5: D165 (antibody, V domains shown)
VH: QVQLVQSGAEVKKPGASVKVSCKASGYTFSNYVINWVRQAPGQRPEWMGWINADNGHTVYSQKLQGRVTITTDTSASEAYMELSGLRSEDTAVYYCARGREDYYNNEPYGMDVWGQGTTVTVSS
VL: DIQMTQSPSSLSASVGDRVTITCRASQTISNYLNWYQQKPGQAPKLLIFAASSLQTGVPSRFSGSGSGTTFTLTISSLQPEDFATYYCQQSYGSLYTFGQGTKLDIK
B6: C2744 (antibody, V domains shown)
VH: EVQLLESGGGLVQTGGSLRLSCAASGFTFSSYAMSWVRQAPGKGLEWVSAISGTGGSTYYADSVKGRFTISRDHSKNTLYLQMNSLRAEDTAVYYCAKPINMIDPHDAFDIWGQGTMVTVSS
VL: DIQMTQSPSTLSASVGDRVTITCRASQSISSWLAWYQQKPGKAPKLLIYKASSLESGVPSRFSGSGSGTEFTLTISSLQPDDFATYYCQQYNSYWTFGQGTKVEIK
B7: D044 (antibody, V domains shown)
VH: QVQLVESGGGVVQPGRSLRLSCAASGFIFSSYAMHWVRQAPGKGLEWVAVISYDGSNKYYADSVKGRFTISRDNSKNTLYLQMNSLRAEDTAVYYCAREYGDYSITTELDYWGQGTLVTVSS
VL: QSVLTQPPSVSGAPGQRVTISCTGSSSNIGAGYDVHWYQQLPGTAPKLLIYGNSNRPSGVPDRFSGSKSGTSASLAITGLQAEDEADYYCQSYDSSLSGYVFGTGTKVTVL
B8: C2726 (antibody, V domains shown)
VH: EVQLVQSGAEVKKPGESLKISCKGSGYSFTSYWIGWVRQMPGKGLEWMGIIYPGDSDTRYSPSFQGQVTISADKSISTAYLQWSSLKASDTAMYYCARRTAARTNGVCLDYWGQGTLVTVSS
VL: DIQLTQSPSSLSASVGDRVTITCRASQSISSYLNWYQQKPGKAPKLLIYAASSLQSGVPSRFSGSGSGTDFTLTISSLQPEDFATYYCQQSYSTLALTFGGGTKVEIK
B9: D069 (antibody, V domains shown)
VH: QVQLVESGGGVVQPGGSLRLSCAASGFTFNIYGMHWVRQAPGKGLEWVAFIRYDGSNKYYADSVKGRFTISRDNSKNTLYLQMNSLRAEDTAVYYCAKSVGYYASGSYYFDYWGQGTLVTVSS
VL: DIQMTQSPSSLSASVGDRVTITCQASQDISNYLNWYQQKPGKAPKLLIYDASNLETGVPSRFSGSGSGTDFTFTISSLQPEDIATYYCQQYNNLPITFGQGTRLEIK
B10: D001 (antibody, V domains shown)
VH: QVQLVESGGGVVQPGRSLRLSCAASGFTFSSYGMHWVRQAPGKGLEWVAVISYDGSNKYYVDSVKGRFTISRDNSKNTLYLQMNSLRAEDTAVYYCAKEGGSYYGGGGYFDYWGQGTLVTVSS
VL: DIQMTQSPSSLSASVGDRVTITCQASQDISNYLHWYQQKPGKAPKLLIYDASNLETGVPSRFSGSGSGTDFTLTISSLQPEDIATYYCQQYDNLPYTFGQGTKLEIK
B11: D040 (antibody, V domains shown)
VH: QVQLVESGGGVVQPGRSLRLSCAASGFTFSSYGMHWVRQAPGKGLEWVTAISYDGSNKYYADSVRGRFTISRDNSKRTLYLQMNSLRAEDTAVYYCAKGVGPYCSGGSCYSPYFDYWGQGTLVTVSS
VL: B10 VL with V15I, S26N, H34N, G41R, N53D, L73F, Y91S, Y96L, Q100G, L104V
B12: C2722 (antibody, V domains shown)
VH: EVQLVESGGGLVQPGGSLRLSCAASGFTFSSYSMNWVRQAPGKGLEWVSYISSSSSTIYYADSVKGRFTISRDNAKNSLYLQMNSLRAEDTAVYYCARDDGGGAYYDFWSGYYGDYWGQGTLVTVSS
VL: EIVLTQSPATLSLSPGERATLSCRASQSVSSYLAWYQQKPGQAPRLLIYDASNRATGIPARFSGSGSGTDFTLTISSLEPEDFAVYYCQQRSNWPPFTFGPGTKVDIK
B13: D162 (antibody, V domains shown)
VH: QVQLVESGGGVVQPGGSLRLSCAASGFTFSSYGMHWVRQAPGKGLEWVAFIRYDGSNKYYADSVKGRFTISRDNSKNTLYLQMNSLRAEDTAVYYCAKDQYYYGSGSYPWFDPWGQGTLVTVSS
VL: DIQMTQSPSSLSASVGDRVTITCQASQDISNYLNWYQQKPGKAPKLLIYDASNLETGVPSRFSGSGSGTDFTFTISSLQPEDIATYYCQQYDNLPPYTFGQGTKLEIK
B14: C2697 (antibody, V domains shown)
VH: EVQLVESGGGLVQPGGSLRLSCAASGFTFSSSYSMNWVRQAPGKGLEWVSYISSSSSTIYYADSVKGRFTISRDNAKNSLYLQMNSLRDEDTAVYYCARHYGDKTYYFYGMDVWGQGTTVTVSS
VL: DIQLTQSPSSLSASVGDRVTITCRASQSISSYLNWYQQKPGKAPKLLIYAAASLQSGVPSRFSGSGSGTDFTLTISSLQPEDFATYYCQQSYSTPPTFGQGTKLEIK
B15: D100 (antibody, V domains shown)
VH: QVQLVQSGAEVKKPGASVKVSCKASGYTFTSYGISWVRQAPGQGLEWMGWISAYNGNTNYAQKLQGRVTMTTDTSTSTAYMELRSLRSDDTAVYYCARVPDRRETPYYDFWSGYSIFDYWGQGTLVTVSS
VL: DIQMTQSPSSLSASVGDRVTITCRASQGISNYLAWFQQKPGKAPKSLIYAASSLQSGVPSKFSGSGSGTDFTLTISSLQPEDFATYYCQQYNSYPLTFGGGTKVEIK
B16: C2706 (antibody, V domains shown)
VH: B10 VH with Q1E, R16G, V50F, S52R, V61A, E99V, S102R, Y104S, G106Y, G107E
VL: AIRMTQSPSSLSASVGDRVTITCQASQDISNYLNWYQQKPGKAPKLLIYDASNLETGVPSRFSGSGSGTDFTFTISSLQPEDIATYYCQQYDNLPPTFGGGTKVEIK
B17: D166 (antibody, V domains shown)
VH: EVQLVESGGGLVQPGGSLRLSCAASGFTFSSYDMHWVRQATGKGLEWVSAIGTAGDTYYPGSVKGRFTISRENAKNSLYLQMNSLRAGDTAVYYCARVSYDSSGYYWVFDYWGQGTLVTVSS
VL: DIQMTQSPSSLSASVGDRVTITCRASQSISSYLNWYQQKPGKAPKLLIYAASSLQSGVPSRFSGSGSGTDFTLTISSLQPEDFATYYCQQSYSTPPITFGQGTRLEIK
B18: D032 (antibody, V domains shown)
VH: QVQLVESGGGVVQPGRSLRLSCAASGFTFSSYGMHWVRQAPGKGLEWVAVISYDGSNKYYADSVKGRFTISRDNSKNTLYLQMNSLRAEDTAVYYCAKVETVVDSDYYYYYGMDVWGQGTTVTVSS
VL: SYVLTQPPSVSVSPGQTARITCSGDALPKQYAYWYQQKPGQAPVLVIYKDSERPSGIPERFSGSSSGTTVTLTISGVQAEDEADYYCQSADSSGTYWVFGGGTKLTVL

Biological target: T1, SARS-CoV-2 spike RBD (WT) (Severe acute respiratory syndrome …, UniProt P0DTC2)
Test: BLI

| Binder | Kd |
| --- | --- |
| B1 | 133 nM |
| B2 | 49.8 nM |
| B3 | 24.1 nM |
| B4 | 49.1 nM |
| B5 | 117 nM |
| B6 | 248 nM |
| B7 | 56.9 nM |
| B8 | 133 nM |
| B9 | 140 nM |
| B10 | 16.6 nM |
| B11 | 32 nM |
| B12 | 43.3 nM |
| B13 | 1440 nM |
| B14 | 101 nM |
| B15 | 530 nM |

Biological target: T1, SARS-CoV-2 spike RBD (WT)
Test: ELISA
Set-up: unit not given here

| Binder | binding score |
| --- | --- |
| B1 | 45.1 |
| B2 | 96 |
| B3 | 84.8 |
| B4 | 22.3 |
| B5 | 1370 |
| B6 | 5390 |
| B7 | 266 |
| B8 | 3440 |
| B9 | 252 |
| B10 | 77.6 |
| B11 | 7.71 |
| B16 | > 10000 |
| B17 | 2870 |
| B12 | 177 |
| B13 | 958 |
| B14 | 2060 |
| B18 | > 10000 |
| B15 | > 10000 |
